Here are results for one protein from article PMC8125230, “Crystal Structure of Escherichia coli Agmatinase: Catalytic Mechanism and Residues Relevant for Substrate Specificity” (International Journal of Molecular Sciences, 2021).

This series concerns the molecule itself. The experiment in a line: crystal structure; sitting drop vapor diffusion at 18 °C; protein 12 mg/mL in 25 mM Tris-HCl pH 8.0, 2 mM MnCl2, 100 mM guanidine chloride; two crystal forms (7LOL at 1.8 Å, 7LOX at 3.2 Å); oligomeric state analysed with PISA.

The stoichiometry N is a count of units in the complex or per binding partner.

B1: Agmatinase from Escherichia coli (enzyme)
chain: MSTLGHQYDNSLVSNAFGFLRLPMNFQPYDSDADWVITGVPFDMATSGRAGGRHGPAAIRQVSTNLAWEHNRFPWNFDMRERLNVVDCGDLVYAFGDAREMSEKLQAHAEKLLAAGKRMLSFGGDHFVTLPLLRAHAKHFGKMALVHFDAHTDTYANGCEFDHGTMFYTAPKEGLIDPNHSVQIGIRTEFDKDNGFTVLDACQVNDRSVDDVIAQVKQIVGDMPVYLTFDIDCLDPAFAPGTGTPVIGGLTSDRAIKLVRGLKDLNIVGMDVVEVAPAYDQSEITALAAATLALEMLYIQAAKKGE
notes: Agmatinase (EcAGM), Escherichia coli; wild type; gene cloned into pQE60; residues 11 to 26 of the N-terminal end are modeled in the structure; The hexamer (dimer of trimers) is built by crystal symmetry: 7LOL has one chain and 7LOX three chains in the asymmetric unit; also called EcAGM; E. coli AGM; source: E. coli BL21(DE3), purified (HisTrap HP, S-200 size exclusion)
B1: the “stoichiometry N” value was 6.
